T1: human TIGIT-his (human, UniProt Q495A1)
T1 chain: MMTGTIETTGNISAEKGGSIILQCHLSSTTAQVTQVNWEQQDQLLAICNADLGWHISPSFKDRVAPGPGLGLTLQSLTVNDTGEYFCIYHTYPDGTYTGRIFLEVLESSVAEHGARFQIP

T2: mouse TIGIT-his (mouse, UniProt P86176)
T2 chain: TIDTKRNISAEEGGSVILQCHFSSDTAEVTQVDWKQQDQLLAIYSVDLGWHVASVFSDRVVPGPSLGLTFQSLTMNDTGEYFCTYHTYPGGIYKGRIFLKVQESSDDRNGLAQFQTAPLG

T3: human TIGIT on CHO cells (human, UniProt Q495A1)
T3 chain: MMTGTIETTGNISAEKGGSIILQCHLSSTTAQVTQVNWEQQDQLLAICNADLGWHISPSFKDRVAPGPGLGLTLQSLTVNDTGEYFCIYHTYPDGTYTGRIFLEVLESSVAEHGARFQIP


Experiments:
monkey TIGIT-his = monkey TIGIT-his (monkey); assay: BLI
Sequence of monkey TIGIT-his (monkey) (Q495A1 other isoform, or with tags, fused parts or gaps): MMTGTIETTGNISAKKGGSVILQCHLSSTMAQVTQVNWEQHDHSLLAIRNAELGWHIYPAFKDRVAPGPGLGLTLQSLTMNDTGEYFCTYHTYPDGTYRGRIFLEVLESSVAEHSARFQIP

human TIGIT-his = molecular target: T1, human TIGIT-his; assay: BLI
mouse TIGIT-his [1] = molecular target: T2, mouse TIGIT-his; assay: BLI
human TIGIT on CHO cells [2] = molecular target: T3, human TIGIT on CHO cells; assay: FACS, CHO-expressed antibody
human TIGIT on CHO cells [3] = molecular target: T3, human TIGIT on CHO cells; assay: FACS
human TIGIT on CHO cells [4] = molecular target: T3, human TIGIT on CHO cells; assay: competition, CD155 blocking FACS
human TIGIT on CHO cells [5] = molecular target: T3, human TIGIT on CHO cells; assay: competition, CD155 blocking FACS
human TIGIT on CHO cells [6] = molecular target: T3, human TIGIT on CHO cells; assay: competition
mouse TIGIT-his [7] = molecular target: T2, mouse TIGIT-his; assay: BLI

Row | Kd (monkey TIGIT-his) [nM] | Kd (human TIGIT-his) [nM] | binding result (mouse TIGIT-his [1]) | EC50 (human TIGIT on CHO cells [2]) [nM] | EC50 (human TIGIT on CHO cells [3]) [nM] | IC50 (human TIGIT on CHO cells [4]) [nM] | IC50 (human TIGIT on CHO cells [5]) [nM] | IC50 (human TIGIT on CHO cells [6]) [nM] | Kd (mouse TIGIT-his [7]) [nM] | Binder
1 | 3.44 | 2.7 | no binding | – | – | – | – | – | – | ADI-30306 (antibody, V domains shown) VH: QLQLQESGPGLVKPSETLSLTCTVSGGSISSSLYYWGWIRQPPGKGLEWIGSIYYSGSTFYNPSFKSRVTISVDTSKNQFSLKLSSVTAADTAVYYCAREAGRGTTGLLFDYWGQGTLVTVSS VL: DIQMTQSPSTLSASVGDRVTITCRASQSISSWLAWYQQKPGKAPKLLIYKASSLESGVPSRFSGSGSGTEFTLTISSLQPDDFATYYCQQYGILPRTFGGGTKVEIK
2 | 0.556 | 1.46 | no binding | 0.13 | 0.629 | 0.409 | 0.122 | – | – | ADI-30336 (antibody, V domains shown) VH: QLQLQESGPGLVKPSETLSLTCTVSGGSISSSRYYWGWIRQPPGKGLEWIGSIYYSGSTYYNPSLKSRVTISVDTSKNQFSLKLSSVTAADTAVYYCARDGLYHTPEYFQHWGQGTLVTVSS VL: EIVLTQSPATLSLSPGERATLSCRASQSVSSYLAWYQQKPGQAPRLLIYDASNRATGIPARFSGSGSGTDFTLTISSLEPEDFAVYYCQQRFAHPYTFGGGTKVEIK
3 | 4.53 | 1.75 | no binding | 0.132 | 0.409 | 0.217 | 0.116 | – | – | ADI-30278 (antibody, V domains shown) VH: QVQLVQSGAEVKKPGASVKVSCKASGYTFTEYYMHWVRQAPGQGLEWMGIISPSAGSTKYAQKFQGRVTMTRDTSTSTVYMELSSLRSEDTAVYYCARDHDIRLAGRLADYWGQGTLVTVSS VL: DIQMTQSPSSVSASVGDRVTITCRASQGISSWLAWYQQKPGKAPKLLISAASSLQSGVPSRFSGSGSGTDFTLTISSLQPEDFATYYCQQAVILPITFGGGTKVEIK
4 | – | – | – | – | 0.61 | – | – | 0.404 | – | ADI-30272 (antibody, V domains shown) VH: QVQLVQSGAEVKKPGASVKVSCKASGYTFTEYYMHWVRQAPGQGLEWMGIISPSAGSTSYAQKFQGRVTMTRDTSTSTVYMELSSLRSEDTAVYYCARDHDIAAAGRLADYWGQGTLVTVSS VL: DIQMTQSPSSVSASVGDRVTITCRASQGISSWLAWYQQKPGKAPKLLISAASSLQSGVPSRFSGSGSGTDFTLTISSLQPEDFATYYCQQAVILPITFGGGTKVEIK
5 | – | – | – | – | 0.496 | 0.603 | – | – | – | ADI-27297 (antibody, V domains shown) VH: QVQLVQSGAEVKKPGASVKVSCKASGYTFTSYYMHWVRQAPGQGLEWMGIINPSGGSTSYAQKFQGRVTMTRDTSTSTVYMELSSLRSEDTAVYYCARDHDIAAAGRLADYWGQGTLVTVSS VL: DIQMTQSPSSVSASVGDRVTITCRASQGISSWLAWYQQKPGKAPKLLISAASSLQSGVPSRFSGSGSGTDFTLTISSLQPEDFATYYCQQAVILPITFGGGTKVEIK
6 | 62.3 | 3.29 | – | 0.139 | 0.329 | 0.221 | 0.14 | – | 46.4 | ADI-30268 (antibody, V domains shown) VH: QVQLVQSGAEVKKPGASVKVSCKASGYTFGSYYMGWVRQAPGQGLEWMGIIDPSGGRTSYARKFQGRVTMTRDTSTSTVYMELSSLRSEDTAVYYCARARTPSSWPYGMDVWGQGTTVTVSS VL: DIQMTQSPSSLSASVGDRVTITCRASQSINSYLNWYQQKPGKAPKLLIYAASSLQSGVPSRFSGSGSGTDFTLTISSLQPEDFATYYCQQSLLTPFTFGGGTKVEIK
7 | – | – | – | – | 0.751 | 0.418 | – | – | – | ADI-27238 (antibody, V domains shown) VH: QVQLVQSGAEVKKPGASVKVSCKASGYTFTSYYMSWVRQAPGQGLEWMGIINPSGGSTSYAQKFQGRVTMTRDTSTSTVYMELSSLRSEDTAVYYCARARYPSSWPYGMDVWGQGTTVTVSS VL: DIQMTQSPSSLSASVGDRVTITCRASQSINSYLNWYQQKPGKAPKLLIYAASSLQSGVPSRFSGSGSGTDFTLTISSLQPEDFATYYCQQSLLTPFTFGGGTKVEIK
8 | 34.9 | 0.789 | – | 0.229 | 0.9 | 0.859 | 0.251 | – | 13 | ADI-30293 (antibody, V domains shown) VH: EVQLVESGGGLVQPGGSLRLSCAASGFTFSSYSMNWVRQAPGKGLEWVSYISSSGTINYADSVKGRFTISRDNAKNSLYLQMNSLRAEDTAVYYCARHRIADSPSRAFDIWGQGTMVTVSS VL: not shown
9 | 10.6 | 1.76 | – | 0.176 | 0.446 | 0.296 | 0.189 | – | 134 | ADI-30286 (antibody, V domains shown) VH: EVQLLESGGGLVQPGGSLRLSCAASGFTFGPYGMSWVRQAPGKGLEWVSAISGSGASTWYADSVKGRFTISRDNSKNTLYLQMNSLRAEDTAVYYCAKDPGTHYSGYYYIWRYWGQGTLVTVSS VL: EIVMTQSPATLSVSPGERATLSCRASQSVSSNLAWYQQKPGQAPRLLIYSASTRATGIPARFSGSGSGTEFTLTISSLQSEDFAVYYCQQYVPHPPFTFGGGTKVEIK
10 | 7.19 | 1.31 | – | 0.186 | 0.475 | 0.668 | 0.224 | – | 5.7 | ADI-30288 (antibody, V domains shown) VH: EVQLLESGGGLVQPGGSLRLSCAASGFTFGPYGMSWVRQAPGKGLEWVSAISGSGASTWHADSVKGRFTISRDNSKNTLYLQMNSLRAEDTAVYYCAKDPGTDSTGYYYIWRYWGQGTLVTVSS VL: EIVMTQSPATLSVSPGERATLSCRASQSVSSNLAWYQQKPGQAPRLLIYSASTRATGIPARFSGSGSGTEFTLTISSLQSEDFAVYYCQQYVPHPPFTFGGGTKVEIK

Reference: US11370837 (dated 2022)
